Source: doi:10.1101/2024.10.01.616059 (bioRxiv, 2024)

Molecular target: the molecule itself
Experiment: SEC; native whole-cell lysate of NIH3T3 AP1 KO cells on Yarra SEC-2000 (1 kDa to 300 kDa); fractions immunoblotted

B1: phosphoribosyl pyrophosphate synthetase 2 (PRPS2), mouse, endogenous (enzyme, UniProt Q9CS42 1-318, looked up)
chain: MPNIVLFSGSSHQDLSQRVADRLGLELGKVVTKKFSNQETSVEIGESVRGEDVYIIQSGCGEINDNLMELLIMINACKIASSSRVTAVIPCFPYARQDKKDKSRAPISAKLVANMLSVAGADHIITMDLHASQIQGFFDIPVDNLYAEPAVLQWIRENITEWRNCIIVSPDAGGAKRVTSIADRLNVEFALIHKERKKANEVDRMVLVGDVKDRVAILVDDMADTCGTICHAADKLLSAGATKVYAILTHGIFSGPAISRINSAAFEAVVVTNTIPQEDKMKHCSKIQVIDISMILAEAIRRTHNGESVSYLFSHVPL
notes: PRPS2, mouse, endogenous protein of NIH3T3 cells and mouse tissue; also called P2; source: endogenous, NIH3T3 (parental and CRISPR knockout clones), native lysate; endogenous, C57BL/6 mouse kidney, native lysate
stoichiometry N: 2
